The numbers were not newly measured in patent US6194458A, “Benzamide potassium channel inhibitors” (Merck & Co., Inc., priority 1999, dated 2001), which cites them from elsewhere.

This data set concerns the target T1, Kv 1.3 channels (Homo sapiens, UniProt P22001).
T1 construct: expressed in transfected cells; host or cells: CHO cells
Conditions: blocker of Kv 1.3 channels; CHO cells transfected with Kv 1.3; stated in the method description.

T1 sequence (P22001 whole entry): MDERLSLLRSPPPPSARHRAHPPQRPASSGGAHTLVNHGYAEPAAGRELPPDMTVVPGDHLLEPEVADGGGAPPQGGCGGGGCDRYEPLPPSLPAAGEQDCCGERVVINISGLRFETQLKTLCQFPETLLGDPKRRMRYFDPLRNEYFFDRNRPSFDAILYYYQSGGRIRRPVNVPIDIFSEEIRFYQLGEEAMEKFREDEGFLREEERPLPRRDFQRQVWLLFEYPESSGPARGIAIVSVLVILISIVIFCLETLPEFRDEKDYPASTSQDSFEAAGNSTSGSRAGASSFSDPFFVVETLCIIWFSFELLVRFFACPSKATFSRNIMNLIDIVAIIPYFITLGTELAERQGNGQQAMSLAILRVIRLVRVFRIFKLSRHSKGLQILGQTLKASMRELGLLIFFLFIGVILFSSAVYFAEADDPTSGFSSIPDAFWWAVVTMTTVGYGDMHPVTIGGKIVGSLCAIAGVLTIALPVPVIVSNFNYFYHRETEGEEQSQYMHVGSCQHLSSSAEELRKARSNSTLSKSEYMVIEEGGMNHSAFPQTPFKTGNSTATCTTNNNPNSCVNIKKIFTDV

On to “margatoxin (TIINVKCTSPKQCLPPCKAQFGQSAGAKCMNGKCKCYPH; UniProt P40755 1-39, looked up)”, for which the IC50 (in general, the point on the concentration scale where inhibition reaches its midpoint) is 0.1 nM.
